biological target: T1, hen egg lysozyme (Gallus gallus (hen egg white), UniProt P00698); test: SPR; Biacore T200; lysozyme immobilised on Sensor Chip CM5 by amine coupling (200 RU); VHH injected 300 s, dissociation 600 s in PBST (PBS, 0.005% Tween 20); 1:1 binding model; duplicate; conditions: both partners purified
T1 construct: hen egg lysozyme (HEL), the antigen of D3-L11; also in PDB 6JB8; The supplier is named for the ELISA only; also called HEL; antigen lysozyme; source: bought: Sigma-Aldrich, Cat No. L6876
T1 sequence (P00698 19-147): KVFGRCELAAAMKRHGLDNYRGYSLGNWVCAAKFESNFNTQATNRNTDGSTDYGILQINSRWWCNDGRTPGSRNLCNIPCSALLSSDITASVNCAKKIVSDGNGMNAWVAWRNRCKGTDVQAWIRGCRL

Row | Binder | Kd
1 | D3-L11 G26I (VHH, as the VHH chain of Sm1 (D3-L11 wild type, PDB 6JB8) with G26I; SAG tripeptide linker before the C-terminal 6xHis tag; source: ExpiCHO, transient transfection, purified from supernatant (His Mag Sepharose excel); not shown: His6, C-terminal, kept) VHH: DVQLVESGGGSVQAGGSLRLSCAASISTDSIEYMTWFRQAPGKAREGVAALYTHTGNTYYTDSVKGRFTISQDKAKNMAYLRMDSVKSEDTAIYTCGATRKYVPVRFALDQSSYDYWGQGTQVTVSS | 0.025 ± 0.0003 nM
2 | D3-L11 A79F (VHH, as the VHH chain of Sm1 (D3-L11 wild type, PDB 6JB8) with A79F; SAG tripeptide linker before the C-terminal 6xHis tag; source: ExpiCHO, transient transfection, purified from supernatant (His Mag Sepharose excel); not shown: His6, C-terminal, kept) VHH: DVQLVESGGGSVQAGGSLRLSCAASGSTDSIEYMTWFRQAPGKAREGVAALYTHTGNTYYTDSVKGRFTISQDKAKNMFYLRMDSVKSEDTAIYTCGATRKYVPVRFALDQSSYDYWGQGTQVTVSS | 0.0121 ± 0.0002 nM
3 | D3-L11 G97F (VHH, as the VHH chain of Sm1 (D3-L11 wild type, PDB 6JB8) with G97F; SAG tripeptide linker before the C-terminal 6xHis tag; source: ExpiCHO, transient transfection, purified from supernatant (His Mag Sepharose excel); not shown: His6, C-terminal, kept) VHH: DVQLVESGGGSVQAGGSLRLSCAASGSTDSIEYMTWFRQAPGKAREGVAALYTHTGNTYYTDSVKGRFTISQDKAKNMAYLRMDSVKSEDTAIYTCFATRKYVPVRFALDQSSYDYWGQGTQVTVSS | 0.006 ± 0.0004 nM

biological target: T2, hen egg lysozyme (Gallus gallus (hen egg white), UniProt P00698); test: ELISA; lysozyme (1 ug/mL) coated on 384-well MaxiSorp plate overnight at 4 °C; serial concentrations of VHH in 5% BlockingOne in TBST, 1 h at room temperature; detected with Penta-His HRP conjugate; conditions: both partners purified
T2 construct: hen egg lysozyme (HEL), antigen of VHH D3-L11; also in the complex structure PDB 6JB8; also called HEL; antigen lysozyme; source: bought: Sigma-Aldrich, Cat No. L6876 (named for the ELISA)
T2 sequence (P00698 19-147): as the sequence (P00698 19-147) above

Row | Binder | binding result
4 | D3-L11 A79E (VHH, as the VHH chain of m2 (D3-L11, PDB 6JB8) with the stated substitution; Second-round mutant; same construct as m2; Too little protein for SPR; also called E mutant; source: ExpiCHO, transient transfection, purified from supernatant (His Mag Sepharose excel); not shown: His6 (after a SAG tripeptide linker), C-terminal, kept) VHH: DVQLVESGGGSVQAGGSLRLSCAASGSTDSIEYMTWFRQAPGKAREGVAALYTHTGNTYYTDSVKGRFTISQDKAKNMEYLRMDSVKSEDTAIYTCGATRKYVPVRFALDQSSYDYWGQGTQVTVSS | binds
5 | D3-L11 A79K (VHH, as the VHH chain of m2 (D3-L11, PDB 6JB8) with the stated substitution; Second-round mutant; same construct as m2; Too little protein for SPR; also called K mutant; source: ExpiCHO, transient transfection, purified from supernatant (His Mag Sepharose excel); not shown: His6 (after a SAG tripeptide linker), C-terminal, kept) VHH: DVQLVESGGGSVQAGGSLRLSCAASGSTDSIEYMTWFRQAPGKAREGVAALYTHTGNTYYTDSVKGRFTISQDKAKNMKYLRMDSVKSEDTAIYTCGATRKYVPVRFALDQSSYDYWGQGTQVTVSS | binds
6 | D3-L11 A79P (VHH, as the VHH chain of m2 (D3-L11, PDB 6JB8) with the stated substitution; Second-round mutant; same construct as m2; Too little protein for SPR; also called P mutant; source: ExpiCHO, transient transfection, purified from supernatant (His Mag Sepharose excel); not shown: His6 (after a SAG tripeptide linker), C-terminal, kept) VHH: DVQLVESGGGSVQAGGSLRLSCAASGSTDSIEYMTWFRQAPGKAREGVAALYTHTGNTYYTDSVKGRFTISQDKAKNMPYLRMDSVKSEDTAIYTCGATRKYVPVRFALDQSSYDYWGQGTQVTVSS | binds

biological target: T2, hen egg lysozyme; test: SPR; Biacore T200; lysozyme immobilised on Sensor Chip CM5 by amine coupling to 200 RU; VHH injected 300 s, dissociation 600 s; running buffer PBST (PBS, 0.005% Tween 20); duplicate; 1:1 binding model; conditions: both partners purified

Row | Binder | fold decrease in affinity (KD) against wild type
7 | D3-L11 A79W (VHH, as the VHH chain of m2 (D3-L11, PDB 6JB8) with the stated substitution; Second-round mutant; same construct as m2; also called W mutant; source: ExpiCHO, transient transfection, purified from supernatant (His Mag Sepharose excel); not shown: His6 (after a SAG tripeptide linker), C-terminal, kept) VHH: DVQLVESGGGSVQAGGSLRLSCAASGSTDSIEYMTWFRQAPGKAREGVAALYTHTGNTYYTDSVKGRFTISQDKAKNMWYLRMDSVKSEDTAIYTCGATRKYVPVRFALDQSSYDYWGQGTQVTVSS | < 10 fold
8 | D3-L11 A79Q (VHH, as the VHH chain of m2 (D3-L11, PDB 6JB8) with the stated substitution; Second-round mutant; same construct as m2; also called Q mutant; source: ExpiCHO, transient transfection, purified from supernatant (His Mag Sepharose excel); not shown: His6 (after a SAG tripeptide linker), C-terminal, kept) VHH: DVQLVESGGGSVQAGGSLRLSCAASGSTDSIEYMTWFRQAPGKAREGVAALYTHTGNTYYTDSVKGRFTISQDKAKNMQYLRMDSVKSEDTAIYTCGATRKYVPVRFALDQSSYDYWGQGTQVTVSS | < 10 fold
9 | D3-L11 A79T (VHH, as the VHH chain of m2 (D3-L11, PDB 6JB8) with the stated substitution; Second-round mutant; same construct as m2; also called T mutant; source: ExpiCHO, transient transfection, purified from supernatant (His Mag Sepharose excel); not shown: His6 (after a SAG tripeptide linker), C-terminal, kept) VHH: DVQLVESGGGSVQAGGSLRLSCAASGSTDSIEYMTWFRQAPGKAREGVAALYTHTGNTYYTDSVKGRFTISQDKAKNMTYLRMDSVKSEDTAIYTCGATRKYVPVRFALDQSSYDYWGQGTQVTVSS | < 10 fold
10 | D3-L11 A79H (VHH, as the VHH chain of m2 (D3-L11, PDB 6JB8) with the stated substitution; Second-round mutant; same construct as m2; also called H mutant; source: ExpiCHO, transient transfection, purified from supernatant (His Mag Sepharose excel); not shown: His6 (after a SAG tripeptide linker), C-terminal, kept) VHH: DVQLVESGGGSVQAGGSLRLSCAASGSTDSIEYMTWFRQAPGKAREGVAALYTHTGNTYYTDSVKGRFTISQDKAKNMHYLRMDSVKSEDTAIYTCGATRKYVPVRFALDQSSYDYWGQGTQVTVSS | < 10 fold
11 | D3-L11 A79R (VHH, as the VHH chain of m2 (D3-L11, PDB 6JB8) with the stated substitution; Second-round mutant; same construct as m2; also called R mutant; source: ExpiCHO, transient transfection, purified from supernatant (His Mag Sepharose excel); not shown: His6 (after a SAG tripeptide linker), C-terminal, kept) VHH: DVQLVESGGGSVQAGGSLRLSCAASGSTDSIEYMTWFRQAPGKAREGVAALYTHTGNTYYTDSVKGRFTISQDKAKNMRYLRMDSVKSEDTAIYTCGATRKYVPVRFALDQSSYDYWGQGTQVTVSS | < 10 fold
12 | D3-L11 A79F (VHH, as the VHH chain of m2 (D3-L11, PDB 6JB8) with the stated substitution; First-round mutant; same construct as m2; also called F mutant; source: ExpiCHO, transient transfection, purified from supernatant (His Mag Sepharose excel); not shown: His6 (after a SAG tripeptide linker), C-terminal, kept) VHH: DVQLVESGGGSVQAGGSLRLSCAASGSTDSIEYMTWFRQAPGKAREGVAALYTHTGNTYYTDSVKGRFTISQDKAKNMFYLRMDSVKSEDTAIYTCGATRKYVPVRFALDQSSYDYWGQGTQVTVSS | < 10 fold
13 | D3-L11 A79I (VHH, as the VHH chain of m2 (D3-L11, PDB 6JB8) with the stated substitution; Second-round mutant; same construct as m2; also called I mutant; source: ExpiCHO, transient transfection, purified from supernatant (His Mag Sepharose excel); not shown: His6 (after a SAG tripeptide linker), C-terminal, kept) VHH: DVQLVESGGGSVQAGGSLRLSCAASGSTDSIEYMTWFRQAPGKAREGVAALYTHTGNTYYTDSVKGRFTISQDKAKNMIYLRMDSVKSEDTAIYTCGATRKYVPVRFALDQSSYDYWGQGTQVTVSS | 1.6 fold
14 | D3-L11 A79C (VHH, as the VHH chain of m2 (D3-L11, PDB 6JB8) with the stated substitution; Second-round mutant; same construct as m2; also called C mutant; source: ExpiCHO, transient transfection, purified from supernatant (His Mag Sepharose excel); not shown: His6 (after a SAG tripeptide linker), C-terminal, kept) VHH: DVQLVESGGGSVQAGGSLRLSCAASGSTDSIEYMTWFRQAPGKAREGVAALYTHTGNTYYTDSVKGRFTISQDKAKNMCYLRMDSVKSEDTAIYTCGATRKYVPVRFALDQSSYDYWGQGTQVTVSS | < 2 fold
15 | D3-L11 A79Y (VHH, as the VHH chain of m2 (D3-L11, PDB 6JB8) with the stated substitution; Second-round mutant; same construct as m2; also called Y mutant; source: ExpiCHO, transient transfection, purified from supernatant (His Mag Sepharose excel); not shown: His6 (after a SAG tripeptide linker), C-terminal, kept) VHH: DVQLVESGGGSVQAGGSLRLSCAASGSTDSIEYMTWFRQAPGKAREGVAALYTHTGNTYYTDSVKGRFTISQDKAKNMYYLRMDSVKSEDTAIYTCGATRKYVPVRFALDQSSYDYWGQGTQVTVSS | < 2 fold

Source: publication PMC10039853, “Increasing the melting temperature of VHH with the in silico free energy score” (Scientific Reports, 2023)
